The record followed here is patent publication US20150299332A1 (UNIVERSITY OF TSUKUBA, published 2015).

The assay has as its target T1, human CD300a-Fc (human, UniProt Q9UGN4 18-180).
T1 construct: extracellular domain; Made from a chimeric cDNA as in Document 25; not shown: human IgG1 Fc
T1 sequence (looked up): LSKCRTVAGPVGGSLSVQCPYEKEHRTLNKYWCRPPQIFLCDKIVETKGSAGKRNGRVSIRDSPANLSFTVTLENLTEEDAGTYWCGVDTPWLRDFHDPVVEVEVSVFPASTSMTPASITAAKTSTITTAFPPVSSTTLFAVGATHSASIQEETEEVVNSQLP
In words: flow cytometry binding inhibition: human CD300a-Fc on apoptotic Jurkat cells with TX49 (binding of TX49 to CD300a-Fc shown by blocking). The method, then:
First, Jurkat cells (human T-cell line) were suspended in RPMI 1640 medium, and the resulting medium was irradiated with UV for 60 minutes to prepare apoptotic Jurkat cells.
Further, cytometry analysis was carried out under the same test conditions as in Reference Example 1B except that the “Jurkat cell-derived apoptotic cells” were used as apoptotic cells instead of the apoptotic cells derived from wild-type mouse thymocytes; “human CD300a-Fc” was used instead of the “mouse CD300a-Fc”; and “TX49” or “control human IgG1” was used instead of “TX41” (results: FIG. 2E “TX49” or “HuIgG1”). “TX49” is an anti-human CD300a antibody (monoclonal antibody), and blocks binding of CD300a to the ligand.

B1: Human CD300a monoclonal antibody TX49 (mouse IgG1) (antibody, V domains shown)
VH: EVQLQQSGAELVKPGASVKLSCKASGYTFTSYWMQWVKQRPGQGLEWIGEIDPSDSYTNYNQKFKGKATLTVDTSSSTTYMQLSSLTSEDSAVYYCARWGMAYGTSSYWYFDVWGTGTTVTVSS
VL: DCDIQMTQTTSSLSASLGDRVTISCRASQDISNYLNWYQQKPDGTVKLLIYYTSRLHSGVPSRFSGSGSGTDYSLTISNLEQEDIATYFCQQGNTLPWTFGGGTKLEIKR
notes: also called anti-human CD300a monoclonal antibody; anti-human CD300a antibody
For B1, the binding result is “binds”.
